Data: publication PMC3936769, “Back to translation: removal of aIF2 from the 5′-end of mRNAs by translation recovery factor in the crenarchaeon Sulfolobus solfataricus” (Nucleic Acids Research, 2013)

T1: aIF2-γ subunit of translation initiation factor aIF2, recombinant, His-tagged (Sulfolobus solfataricus, UniProt Q980A5 1-415)
T1 construct: translation initiation factor 2 subunit gamma (aIF2-γ), Sulfolobus solfataricus
T1 sequence (looked up): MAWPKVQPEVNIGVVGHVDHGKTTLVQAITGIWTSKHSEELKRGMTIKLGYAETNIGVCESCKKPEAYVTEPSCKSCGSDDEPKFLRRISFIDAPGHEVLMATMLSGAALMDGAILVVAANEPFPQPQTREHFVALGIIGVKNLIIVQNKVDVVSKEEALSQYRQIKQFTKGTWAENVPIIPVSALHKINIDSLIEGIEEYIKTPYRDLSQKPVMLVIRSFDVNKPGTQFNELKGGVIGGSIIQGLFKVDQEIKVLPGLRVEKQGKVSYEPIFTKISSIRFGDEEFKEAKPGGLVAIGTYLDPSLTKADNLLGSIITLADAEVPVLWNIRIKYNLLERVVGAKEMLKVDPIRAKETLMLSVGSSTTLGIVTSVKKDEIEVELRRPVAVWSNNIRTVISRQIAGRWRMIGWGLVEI

B1: aIF2-α subunit of translation initiation factor aIF2, recombinant, His-tagged (natural protein, Sulfolobus solfataricus, UniProt Q97Z79 1-266, looked up)
chain: MIYSRSKLPSEGEILIATVKQVFDYGSYVSLDEYGGLQAFLPWSEVSSKWVKNIRDVLKENRKVIVKVIRVDRRKGTVDVSLKKVTDDERRKKNLQWKKIQRLDKILELVSQKLKLSEKDAWEQVAWKLEAKYGDPITAIEKAVKEGEKILIDAGVPEIWVKPLLEEASKHAEERKVKMSGLITVRTNEPLGVEKIKEVISKALENIEQDYESLLNIKIYTIGAPRYRVDVVGTNPKEASEALNQIISNLIKIGKEENVDISVVKK
notes: translation initiation factor 2 subunit alpha (aIF2-α), Sulfolobus solfataricus
B2: aIF2-β subunit of translation initiation factor aIF2, recombinant, His-tagged (natural protein, Sulfolobus solfataricus, UniProt Q97W59 1-139, looked up)
chain: MSSEKEYVEMLDRLYSKLPEKGRKEGTQSLPNMIILNIGNTTIIRNFAEYCDRIRREDKICMKYLLKELAAPGNVDDKGELVIQGKFSSQVINTLMERFLKAYVECSTCKSLDTILKKEKKSWYIVCLACGAQTPVKPL
notes: translation initiation factor 2 subunit beta (aIF2-β), Sulfolobus solfataricus; also called aIF2-ß

Target: T1, aIF2-γ subunit of translation …
Experiment: native gel or EMSA; acidic native polyacrylamide gel electrophoresis of the individual aIF2 subunits and the trimeric complex (Supplementary Figure S3, lanes 1-4)
Settings: both partners purified

Binder | binding result
B1 | binds
B2 | binds
